Target: the molecule itself
Assay: crystal structure; crystals of the SoIPMDH-IPM complex, space group C2, room temperature, in a glass capillary (0.1 MPa) or a diamond anvil cell (160, 340, 410, 580 and 650 MPa); 18% PEG 3350, 100 mM Na HEPES pH 7.0, 200 mM calcium acetate, 10 mM magnesium chloride, 10 mM IPM

B1: 3-isopropylmalate dehydrogenase (IPMDH) from Shewanella oneidensis MR-1 (enzyme)
chain: SYQIAVLAGDGIGPEVMAEARKVLKAVEARFGLNIEYTEYDVGGIAIDNHGCPLPEATLKGCEAADAILFGSVGGPKWEKLPPNEQPERGALLPLRGHFELFCNLRPAKLHDGLEHMSPLRSDISARGFDVLCVRELTGGIYFGKPKGRQGEGESEEAFDTMRYSRREISRIARIAFEAARGRRKKVTSVDKANVLACSVLWRQVVEEVAVDFPDVELEHIYIDNATMQLLRRPDEFDVMLCSNLFGDILSDEIAMLTGSMGLLSSASMNSTGFGLFEPAGGSAPDIAGKGIANPIAQILSAALMLRHSLKQEEAASAIERAVTKALNSGYLTGELLSSDQRHKAKTTVQMGDFIADAVKAGV
notes: 3-isopropylmalate dehydrogenase, product of the leuB gene of Shewanella oneidensis MR-1, subcloned into the BamHI/HindIII sites of pQE-80L (vector pQE-MR1-leuB); Crystallised in complex with its substrate 3-isopropylmalate (IPM) and a divalent cation; the two subunits of the dimer are related by the crystallographic twofold axis; also called SoIPMDH
In the case of B1, the “stoichiometry N” value is reported as 2.

Source: article PMC3282623, “High-pressure-induced water penetration into 3-isopropylmalate dehydrogenase” (Acta Crystallographica Section D: Biological Crystallography, 2012)
